Assay results: paper PMC9701223, “GOLPH3 protein controls organ growth by interacting with TOR signaling proteins in Drosophila” (Cell Death & Disease, 2022)

T1: GST-Lst8 (Drosophila melanogaster, UniProt Q9W328 1-313)
T1 construct: Lst8 (lethal with SEC13 protein 8), Drosophila melanogaster; full-length cDNA cloned into pGEX-6p-2; Held on glutathione beads as bait; source: E. coli ArcticExpress (DE3), purified on glutathione-Sepharose 4B beads
T1 sequence (looked up): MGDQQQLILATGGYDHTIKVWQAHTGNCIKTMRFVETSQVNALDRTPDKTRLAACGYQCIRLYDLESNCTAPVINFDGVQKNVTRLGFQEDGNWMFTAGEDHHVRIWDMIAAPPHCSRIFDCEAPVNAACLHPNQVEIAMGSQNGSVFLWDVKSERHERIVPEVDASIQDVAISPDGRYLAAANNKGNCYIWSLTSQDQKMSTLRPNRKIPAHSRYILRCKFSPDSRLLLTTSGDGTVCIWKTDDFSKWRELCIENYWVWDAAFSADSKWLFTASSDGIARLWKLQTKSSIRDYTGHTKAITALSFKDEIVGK

B1: 6XHis-dGOLPH3 (natural protein, Drosophila melanogaster, UniProt Q9VQ93 1-294, looked up)
chain: MNRSDGLVRRSVKPRENGGAEGGLNANTPDDNQDALDNLKDQEDNIDDGDSKETRLTLMEEVLLLGLKDKEGYTSFWNDCISSGLRGCILIELGLRGRVMIEKSGMRRRGLCTRKLILKSDQQTGDVLLDEALKHIKETDPPETVQSWIEYLSGETWNPLKLRYQLKNVRERLAKNLVEKGVLTTEKQNFLLFDMTTHPLSDNVVKCRLVKKIQDSVLSKWVNDPQRMDKRMLALIFLAHASDVIENAFAPLNDDDYEVAMKRVRELLDLDFEAESAKPNANEILWAVFMAFTK
notes: Golgi phosphoprotein 3 (dGOLPH3), Drosophila melanogaster; source: bacterially expressed

Key:
6XHis-dGOLPH3 = molecular target: B1; experiment: pull-down; direct interaction assay: bacterially expressed 6XHis-dGOLPH3 incubated with GST or GST-tagged proteins on glutathione-Sepharose 4B beads, 1 h, 4 °C; wash 25 mM Tris-HCl pH 7.4, 150 mM NaCl, 1% NP-40, 1 mM EDTA; western blot; settings: both partners purified
GST-Lst8 = molecular target: T1, GST-Lst8; experiment: as above; settings: both partners purified

| binding result (6XHis-dGOLPH3) | binding result (GST-Lst8) | Binder |
| --- | --- | --- |
| binds |  | GST-Tctp (Drosophila Translationally controlled tumor protein) (natural protein, Drosophila melanogaster, UniProt Q9VGS2 1-172, looked up, Translationally controlled tumor protein (Tctp), Drosophila melanogaster; full-length cDNA cloned into pGEX-6p-2; Held on glutathione beads as bait; source: E. coli BL21-Codon Plus, purified on glutathione-Sepharose 4B beads) MKIYKDIITGDEMFADTYKMKLVDDVIYEVYGKLITRQGDDIKLEGANASAEEADEGTDITSESGVDVVLNHRLTECFAFGDKKSYTLYLKDYMKKVLAKLEEKSPDQVDIFKTNMNKAMKDILGRFKELQFFTGESMDCDGMVALVEYREINGDSVPVLMFFKHGLEEEKC |
|  | binds | B1 |
